Laboratory results published in the supplement of paper PMC9170038.

Tests used:
[1] = test system: MS2 coat protein; experiment: apparent KD of MS2 coat protein; designed switch direction (-1 OFF switch, 1 ON switch): 1; higher = weaker reporter binding; conditions: Eterna round: R98
Procedure: (§1)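 RNA-MaP: designed FMN/MS2 RNA switches (84 nt design region) are transcribed on-chip within common flanks and titrated with SNAP-549-labelled MS2 coat protein (about 1-3000 nM) in 100 mM Tris pH 7.5, 80 mM KCl, 4 mM MgCl2, without or with 200 uM FMN. Median apparent KD per design; activation ratio = KD,OFF / KD,ON.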

[2] = test system: MS2 coat protein; experiment: apparent KD of MS2 coat protein; designed switch direction (-1 OFF switch, 1 ON switch): -1; higher = weaker reporter binding; conditions: Eterna round: R98
Procedure: as §1

[3] = test system: MS2 coat protein; experiment: apparent KD of MS2 coat protein; higher = weaker reporter binding; conditions: Eterna round: R101
Procedure: as §1

| Sequence | apparent KD of MS2 coat protein ([1]; input ligand: FMN 200 uM) | apparent KD of MS2 coat protein ([1]; input ligand: none) | further results |
| --- | --- | --- | --- |
| CUGCAAUUCUUAGGAUAUGCUCAGGAAUACUGAGCAGAAGGAAGAUAUACCUGAGGAUCACCCAGGUUAAACUGGAGCAGAAUA [Same State NG1 - A3C, U17G Submission 8A] | 32.2 nM | 181 nM |  |
| CCUGACACUUGAGGAUAUGCUCAGGAAUACUGAGCAGAAGGCAGGAAAACCUGAGGAUCACCCAGGUAAGUCAGGAAUAAUAAA [Same State NG1 - A3C, U17G Submission 3A] | 17.2 nM | 20.7 nM |  |
| GAUACAUAGCAAGGAUAUCCACAUGAGGAUCACCCAUGUGCGUAAUCUGGGCGGUGGAAGAAAGUGGAGAAGGUGUUAGGUUGA [Atia] |  |  | apparent KD of MS2 coat protein ([2]; input ligand: FMN 200 uM): 106 nM; apparent KD of MS2 coat protein ([2]; input ligand: none): 64.2 nM |
| UUGGUUCUCGUAGGAUAUGUAGGAUAUGCCUACAUGAGGAUCACCCAUGUUCGCAUGGCAGAAGGACAGAAGGACGAUCACCAU [pwkr ssNG2 2FMN +1F5.17] | 20.8 nM | 288 nM |  |
| GGUUGUUACGCAGGAUAUUGCCAACAGGCAGUGGGAUAUCCGAAAGGAGAAGGUUCGCCAACAGGCGAGAAGGGCGGGUUAACC [pwkr exNG2 2xF7 2FMN.10.7] |  |  | apparent KD of MS2 coat protein ([2]; input ligand: FMN 200 uM): 94 nM; apparent KD of MS2 coat protein ([2]; input ligand: none): 400 nM |
| GCAGAAGGUGCGGAGGAUCACCCUGUAAGGAUAUGCAUUAGCAAGGAUAUACAGAGGAUCACCCUGUAGAAGGUGCACUUCUGC [pwkr2 ssNG3 DX.9] | 1310 nM | 897 nM |  |
| CACGUCCUCACAGGAUAUGCUGGACUUUGUCCAGCAGAAGGGUGAACAUGAGGAUCACCCAUGUAAAGGACGUGUAUAUUUAAU [Denovo 23] | 72.5 nM | 587 nM |  |
| AAUAAACAAUAAAAGAGUCCACGAAACUUCUGAGGAUCACCCAGAAGGGCUGAGGUAAUACCUCAGCAGGAUAUGGACGUGGAC [#SharedSequence IExNG# - 1] (puzzle (switch architecture): Inverted Exclusion NG 3) |  |  | apparent KD of MS2 coat protein ([3]; input ligand: FMN 200 uM): 5.09 nM; apparent KD of MS2 coat protein ([3]; input ligand: none): 5 nM |
| GGAUAACAUGUAGGAUAUCCAGCAUUGACCAUCGGAGAAGGACAUGAGGAUCACCCAUGUACCGAUACAAUGGAAUAAGGGAAU [xclu_NG1_cac3] |  |  | apparent KD of MS2 coat protein ([2]; input ligand: FMN 200 uM): 17.9 nM; apparent KD of MS2 coat protein ([2]; input ligand: none): 15.4 nM |
| AAAUAACUUGAAGGAUAUGACCCUCGAGGUGACUAAAAGUCACCUCGAGGGUCAGAAGGUCGAGGAUCACCCGACCAAGUGAAA [#SharedSequence SLExNG1: 9] (puzzle (switch architecture): Small Loop Exclusion NG 1) |  |  | apparent KD of MS2 coat protein ([3]; input ligand: FMN 200 uM): 13.3 nM; apparent KD of MS2 coat protein ([3]; input ligand: none): 9.17 nM |
| GGAGACCUCACAGGAUAUGCUGGACUUUGUCCAGCAGAAGGGUGACUAACAUGAGGAUCACCCAUGUAGGUCUCCAAAUUUAAU [Denovo 58] | 631 nM | 40.8 nM |  |
| ACAUGGAAGCGAGGAUAUGCGGCGGAUUUAAACGCAGAAGGCGUUUAUUUAACUCGCAAUAACAUGAGGAUCACCCAUGUAUAA [AK-NGROCr2-ExNG1-5.1] |  |  | apparent KD of MS2 coat protein ([2]; input ligand: FMN 200 uM): 59.4 nM; apparent KD of MS2 coat protein ([2]; input ligand: none): 55.9 nM |
| UUAUGAGCGAUAGGAUAUACUGAGAUUGAAUGGGUAGAAGGAUCAAUCGUGUGGAAGACAUGAGGAUCACCCAUGUUACGGGCC [SameState #75 NG1] | 510 nM | 221 nM |  |
| UGUAAAAUUGAUCCUGCAAGUACAUGAGGAUCACCCAUGUGCUAGGAUAUCGCUCAGCUAAAGACCGAGAAGGAGCACAAUGUA [Adiraat] |  |  | apparent KD of MS2 coat protein ([2]; input ligand: FMN 200 uM): 67.1 nM; apparent KD of MS2 coat protein ([2]; input ligand: none): 27.9 nM |
| GGAGCACACAUUAACAUGAGGAUCACCCAUGUCAAAAGACAUGAGGAUAUGGAUCCGAAAAGGAUCCAGAAGGCAUGGUGCUCC [EliMod 8 - Jieux - Same State NG 3] | 35.1 nM | 598 nM |  |
| AGAAACUACGAGAAGGACAUGUGGUCCUUCAAAAAAAUGAGGAUCACCCAUGUAGGAUAUCGUAGUUUCAGGAUCGUGAGAUCA [salish99_ISLExNG1_x101 #HINGE] (puzzle (switch architecture): Inverted Small Loop Exclusion NG 1) |  |  | apparent KD of MS2 coat protein ([3]; input ligand: FMN 200 uM): 9.58 nM; apparent KD of MS2 coat protein ([3]; input ligand: none): 30 nM |
| AAGUUUUUACAAGGAUAUCAGUUGUUUAUAAAUUAAACAUGAGGAUCACCCAUGUAACAAAGGAGUGAGAAGGUGUGUUGGAAA [JR_SSNG2_Sub089] | 319 nM | 408 nM |  |
